Results on 10 molecules are retold here after paper PMC3948114.

Residue numbers refer to the chain shown, from its start. Numbers in names are those of the source.

B1: FLAG-tagged 3DL1*001, P43629 M165A (protein)
chain: HMGGQDKPFLSAWPSAVVPRGGHVTLRCHYRHRFNNFMLYKEDRIHIPIFHGRIFQESFNMSPVTTAHAGNYTCRGSHPHSPTGWSAPSNPVVIMVTGNHRKPSLLAHPGPLVKSGERVILQCWSDIMFEHFFLHKEGISKDPSRLVGQIHDGVSKANFSIGPMALALAGTYRCYGSVTHTPYQLSAPSDPLDIVVTGPYEKPSLSAQPGPKVQAGESVTLSCSSRSSYDMYHLSREGGAHERRLPAVRKVNRTFQADFPLGPATHGGTYRCFGSFRHSPYEWSDPSDPLLVSVTGNPSSSWPSPTEPSSKSGNPRHLHILIGTSVVIILFILLLFFLLHLWCSNKKNAAVMDQEPAGNRTANSEDSDEQDPEEVTYAQLDHCVFTQRKITRPSQRPKTPPTDTILYTELPNAKPRSKVVSCP
B2: FLAG-tagged 3DL1*001, P43629 L166A (protein)
chain: B1 chain with A165M, L166A
B3: FLAG-tagged 3DL1*001, P43629 P199A (protein)
chain: B1 chain with A165M, P199A
B4: FLAG-tagged 3DL1*001, P43629 A167G (protein)
chain: B1 chain with A165M, A167G
B5: FLAG-tagged 3DL1*001, P43629 L166V (protein)
chain: B1 chain with A165M, L166V
B6: FLAG-tagged 3DL1*001, P43629 E282Q (protein)
chain: B1 chain with A165M, E282Q
B7: FLAG-tagged 3DL1*001, P43629 Y200A (protein)
chain: B1 chain with A165M, Y200A
B8: FLAG-tagged 3DL1*001, P43629 E282A (protein)
chain: B1 chain with A165M, E282A
B9: FLAG-tagged 3DL1*001, P43629 Y200F (protein)
chain: B1 chain with A165M, Y200F
B10: FLAG-tagged 3DL1*001, P43629 D230A (protein)
chain: B1 chain with A165M, D230A

One assay deals with HLA-B*27:05-KF9 N8H tetramer. Nature of the assay: tetramer staining of transfected HEK293 cells. To be noted: chain shown with the change; 0.2 μg tetramer; parent: est. 100; read off a plot.
On to B1, for which the percent of parent is 61 % of ·001.
Still for that read-out and setting: for B2 the value was 45 % of ·001.
Turning to B3, the percent of parent was 21 % of ·001.
Same read-out and setting: next, B4: 130 % of ·001; B5: 58 % of ·001; B6: 89 % of ·001.
On the same count and under the same terms, next, B7: 15 % of ·001; B8: 48 % of ·001; B9: 81 % of ·001.
The same measure, in the same setting: next, B10: 66 % of ·001.

For another assay, the target named is HLA-B*27:05-KF9 tetramer. Nature of the assay: tetramer staining of transfected HEK293 cells. To be noted: chain shown with the change; 0.2 μg tetramer; parent: est. 100; read off a plot.
B1: the percent of parent was 60 % of ·001.
On the same count and under the same terms, for B2 the value was 56 % of ·001; for B3, 21 % of ·001.
The same measure, in the same setting: next, B4: 65 % of ·001; B5: 36 % of ·001; B6: 99 % of ·001.
The same measure, in the same setting: next, B7: 16 % of ·001; B8: 51 % of ·001.
On to B9, for which the percent of parent is 87 % of ·001.
In the case of B10, the percent of parent was 70 % of ·001.
